Experimental findings from patent US20110086806A1 (published 2011) are described below.

To fix the notation:
T1: recombinant human IL-23R/Fc chimera (R&D Systems) (human, UniProt Q5VWK5 24-355)
T1 construct: Bought; also called rhIL23RFc
T1 sequence (looked up): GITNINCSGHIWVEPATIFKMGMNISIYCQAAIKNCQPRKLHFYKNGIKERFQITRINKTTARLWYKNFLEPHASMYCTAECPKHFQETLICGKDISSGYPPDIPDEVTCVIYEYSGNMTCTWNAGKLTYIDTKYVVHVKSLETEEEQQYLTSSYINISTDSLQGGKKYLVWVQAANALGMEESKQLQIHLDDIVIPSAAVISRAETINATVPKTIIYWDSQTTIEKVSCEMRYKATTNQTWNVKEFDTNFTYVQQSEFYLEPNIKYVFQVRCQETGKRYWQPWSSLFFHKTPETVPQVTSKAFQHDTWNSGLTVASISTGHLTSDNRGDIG

B1: 056-41.B5C ATRIMER complex (designed binder)
chain: EPPTQKPKKIVNAKKDVVNTKMFEELKSRLDTLAQEVALLKEQQALQTVCLKGTKVHMKCFLAFTQTKTFHEASEDCISRGGTLSTPQTGSENDALYEYLRQSVGNEAEIWLGLNGSALTNTWVDMTGARIAYKNWETEITAQPDGGFGYFGENCAVLSGAANGKWFDKRCRDQLPYICQFGIV
modifications: non-covalent homotrimer of the one chain given
notes: not shown: Also the single Ser the vector leaves after the ompA signal
B2: 105-20-1B3 ATRIMER complex (designed binder)
chain: B1 chain
B3: 056-53.H1G ATRIMER complex (designed binder)
chain: B1 chain with G116S, S117G, A118H, L119W, T120R, N121A, T122V, Y150V
modifications: Homotrimer of this chain (ATRIMER complex).
notes: not shown: A possible extra N-terminal Ser from the ompA junction is left out
B4: 056-53.H7B ATRIMER complex (designed binder)
chain: B1 chain with G116A, S117G, A118R, L119M, T120G, N121L, T122V, F148W, Y150V
modifications: non-covalent homotrimer of the one chain given
notes: as for B1
B5: 105-08-1A4 ATRIMER complex (designed binder)
chain: B1 chain with L119V
B6: 105-08-2C10 ATRIMER complex (designed binder)
chain: B1 chain with A118L, N121D, Y150V
B7: 056-45.F7F ATRIMER complex (designed binder)
chain: B1 chain with L119T, N121D
modifications: Homotrimer of this chain (ATRIMER complex).
notes: as for B3
B8: 105-08-1D3 ATRIMER complex (designed binder)
chain: B1 chain with A118K, L119V, N121E
B9: 001-87.A9E ATRIMER complex (designed binder)
chain: B1 chain with F148L, F151W
modifications: Homotrimer of this chain (ATRIMER complex).
notes: as for B3
B10: 105-08-2F6 ATRIMER complex (designed binder)
chain: B1 chain with L119Y
B11: 101-113-6C102 ATRIMER complex (designed binder)
chain: EPPTQKPKKIVNAKKDVVNTKMFEELKSRLDTLAQEVALLKEQQALQTVCLKGTKVHMKCFLAFTQTKTFHEASEDCISRGGTLSTPQTGSENDALYEYLRQSVGNEAEIWLGLNGSNVTQTWVDMTGARIAYKNWEPPPPHHPQGGFGVFGENCAVLSGAANGKWFDKRCRDQLPYICQFGIV
notes: not shown: C-terminal tag
B12: 105-20-2F12 ATRIMER complex (designed binder)
chain: B1 chain with A118K, N121D
modifications: ATRIMER complex: homotrimer of three copies of this chain, joined by the tetranectin coiled coil
notes: not shown: C-terminal tag: Myc/His (pANA4) or HA-StrepII (pANA10)
B13: 105-08-2G7 ATRIMER complex (designed binder)
chain: B1 chain with A118P, L119K, N121G
B14: 105-20-1H1 ATRIMER complex (designed binder)
chain: B1 chain with A118P, F148W
B15: 056-53.H7H ATRIMER complex (designed binder)
chain: B1 chain with A118S, L119V, T120S, N121D, T122V
modifications: Homotrimer of this chain (ATRIMER complex).
notes: as for B3
B16: 056-40.A3C ATRIMER complex (designed binder)
chain: B1 chain with L119T, N121A
modifications: Homotrimer of this chain (ATRIMER complex).
notes: as for B3
B17: 105-08-1A3 ATRIMER complex (designed binder)
chain: B1 chain with A118P, L119R, N121D, F148W, Y150V
modifications: Homotrimer of three identical chains (ATRIMER complex); one chain is given.
notes: not shown: C-terminal tag: His/Myc (pANA4) or HA-StrepII (pANA10)
B18: 105-20-2G12 ATRIMER complex (designed binder)
chain: B1 chain with A118P, L119R
B19: 001-69.4G8 ATRIMER complex (designed binder)
chain: B1 chain with A118R, L119R, T120S, N121G, T122V, Y150V
notes: as for B17
B20: 105-08-2G10 ATRIMER complex (designed binder)
chain: B1 chain with A118P, N121D
B21: 105-20-1H7 ATRIMER complex (designed binder)
chain: B1 chain with L119G
B22: 105-20-2A3 ATRIMER complex (designed binder)
chain: B1 chain with A118P, L119I
modifications: Homotrimer of three identical chains (ATRIMER complex); one chain is given.
notes: as for B17
B23: 101-80-5H3 ATRIMER complex (designed binder)
chain: EPPTQKPKKIVNAKKDVVNTKMFEELKSRLDTLAQEVALLKEQQALQTVCLKGTKVHMKCFLAFTQTKTFHEASEDCISRGGTLSTPQTGSENDALYEYLRQSVGNEAEIWLGLNGSALTNTWVDMTGARIAYKNWEPPAPYHPMAAGVFGENCAVLSGAANGKWFDKRCRDQLPYICQFGIV

One may read the Kd as the constant that tells how readily two partners part at equilibrium. A word on the koff: it is a measure of how fast the partners let go of each other. The term kon denotes the second-order rate constant of association. The term IC50 denotes the concentration at which inhibition is half-maximal.

Numbering of substitutions follows the chain as printed. In names and notes the source's numbering stands.

The first assay has as its target T1, recombinant human IL-23R/Fc chimera …. Nature of the assay: SPR. The procedure, abridged:
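Recombinant human IL-23R/Fc captured on anti-human IgG Fc CM5 surface (<200 RU); ATRIMER complexes at 1-500 nM injected at 30 μl/min, 3 min association and 5 min dissociation. Kinetic constants fitted from double-referenced sensorgrams.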
A general note: Surface plasmon resonance follows binding to a sensor surface in real time, without labels.
For the molecule B1, the Ka is 9.78e+08 M⁻¹, the Kd was determined as 1.02 nM, the koff was 0.000314 s⁻¹ and the association rate constant (kon) was determined as 307000 M⁻¹ s⁻¹.

In the case of B2, the Ka was determined as 1.31e+09 M⁻¹, the dissociation constant Kd stood at 0.764 nM, the koff came to 0.00031 s⁻¹ and the kon is 405000 M⁻¹ s⁻¹.

On to B3, for which the Ka came to 1.95e+08 M⁻¹, the Kd came out at 5.13 nM, the koff was found to be 0.000489 s⁻¹ and the kon turned out to be 95200 M⁻¹ s⁻¹.

For B4, the Ka was 1.8e+09 M⁻¹, the Kd is 0.557 nM, the koff was determined as 0.00024 s⁻¹ and the kon stood at 431000 M⁻¹ s⁻¹.

B5: the Ka was found to be 8e+08 M⁻¹, the Kd came to 1.25 nM, the koff was found to be 0.000312 s⁻¹ and the kon was 250000 M⁻¹ s⁻¹.

Consider B6, for which the Ka was 1.63e+09 M⁻¹, the Kd turned out to be 0.612 nM, the koff was found to be 0.000371 s⁻¹ and the kon amounted to 606000 M⁻¹ s⁻¹.

As to B7, the Ka came out at 7.92e+08 M⁻¹, the Kd is 1.26 nM, the koff was found to be 0.000376 s⁻¹ and the kon is 298000 M⁻¹ s⁻¹.

As to B8, the Ka is 7.58e+08 M⁻¹, the Kd was determined as 1.32 nM, the koff was determined as 0.000301 s⁻¹ and the association rate constant (kon) was determined as 228000 M⁻¹ s⁻¹.

As to B9, the Ka stood at 5.21e+08 M⁻¹, the Kd amounted to 1.92 nM, the koff was 0.00033 s⁻¹ and the kon came to 172000 M⁻¹ s⁻¹.

As for B10, the Ka stood at 1.53e+09 M⁻¹, the Kd was found to be 0.653 nM, the koff came to 0.000359 s⁻¹ and the kon came to 550000 M⁻¹ s⁻¹.

With B11, the Ka is 9.62e+08 M⁻¹, the Kd amounted to 1.04 nM, the koff was determined as 0.000283 s⁻¹ and the kon was 271000 M⁻¹ s⁻¹.

B12: the Ka came out at 5.41e+08 M⁻¹, the Kd was determined as 1.85 nM, the koff was determined as 0.000471 s⁻¹ and the on-rate (kon) was 254000 M⁻¹ s⁻¹.

With B13, the Ka turned out to be 6.99e+08 M⁻¹, the Kd is 1.43 nM, the koff was determined as 0.000358 s⁻¹ and the kon was 251000 M⁻¹ s⁻¹.

Take B14: the Ka was 1.17e+09 M⁻¹, the Kd was 0.857 nM, the koff stood at 0.00032 s⁻¹ and the kon came to 374000 M⁻¹ s⁻¹.

With B15, the Ka worked out at 6.65e+08 M⁻¹, the Kd stood at 1.5 nM, the koff stood at 0.000385 s⁻¹ and the association rate constant (kon) was found to be 256000 M⁻¹ s⁻¹.

For the molecule B16, the Ka was 5.7e+08 M⁻¹, the Kd came out at 1.75 nM, the koff was 0.000373 s⁻¹ and the kon is 213000 M⁻¹ s⁻¹.

B17: the Ka stood at 2.11e+09 M⁻¹, the dissociation constant (Kd) is 0.473 nM, the off-rate constant (koff) is 0.000348 s⁻¹ and the association rate constant (kon) worked out at 735000 M⁻¹ s⁻¹.

For the molecule B18, the Ka is 1.52e+09 M⁻¹, the equilibrium dissociation constant (Kd) worked out at 0.658 nM, the koff came to 0.000262 s⁻¹ and the kon is 398000 M⁻¹ s⁻¹.

With B19, the Ka was found to be 1.35e+08 M⁻¹, the dissociation constant (Kd) worked out at 7.42 nM, the koff is 0.000805 s⁻¹ and the kon stood at 109000 M⁻¹ s⁻¹.

As to B20, the Ka was 7.58e+08 M⁻¹, the Kd was 1.32 nM, the koff was 0.000397 s⁻¹ and the kon was determined as 302000 M⁻¹ s⁻¹.

B21: the Ka was 1.34e+09 M⁻¹, the dissociation constant (Kd) came out at 0.744 nM, the koff came out at 0.000372 s⁻¹ and the kon was determined as 500000 M⁻¹ s⁻¹.

Take B22: the Ka came to 1.32e+09 M⁻¹, the Kd turned out to be 0.759 nM, the koff came out at 0.000312 s⁻¹ and the kon was found to be 412000 M⁻¹ s⁻¹.

Consider B23, for which the Ka is 1.55e+08 M⁻¹, the equilibrium dissociation constant (Kd) was determined as 6.46 nM, the koff is 0.000327 s⁻¹ and the kon amounted to 50500 M⁻¹ s⁻¹.

The next assay shares this target. Nature of the assay: competition ELISA vs IL-23. As for the experimental part: Assays were performed generally as follows. Individual wells in Immulon HB2 plates were incubated overnight at 4° C. with 100 μL PBS containing 100 ng of an anti-human IgG Fc (R&D MAB 110 clone 97924). Plates were washed five times with PBS/0.05% Tween 20, and wells were incubated for 1.5 h at RT with 100 μL each of PBS containing 50 ng of recombinant human IL-23R/Fc. […] Competitor was included at a final concentration of 1 μg/mL. After incubation, plates were washed as described and wells were incubated for 40 min at RT with 100 μL each of PBS containing a 1:5000 dilution of streptavidin-HRP conjugate (Pierce catalog no. 21130). After washing, wells were incubated with 100 μL each of TMB (BioFX Lab catalog no. TMBH-1000-0) for up to 30 min at RT. Reactions were stopped with an equal volume of 0.2 M sulfuric acid.
A number of ATRIMER™ polypeptide complexes were tested in competition ELISA more extensively to determine IC50 values.
Consider B1, for which the half-inhibitory concentration (IC50) was 1.65 nM.

As for B3, the half-inhibitory concentration (IC50) worked out at 3.75 nM.

For B4, the IC50 was determined as 0.9 nM.

Take B7: the IC50 came to 1.45 nM.

As for B9, the IC50 was determined as 2.6 nM.

Regarding B15, the IC50 was found to be 0.53 nM.

B16: the IC50 was found to be 1.8 nM.

Consider B19, for which the IC50 is 1.4 nM.

Another assay shares this target. Nature of the assay: competition ELISA vs IL-23. The source holds these as a separate data set. In general terms: In an ELISA, binding on a coated surface is turned into a signal by an enzyme label.
For B2, the “Ratio IC50 to 056-53.H4E IC50” value is 1.2.

Turning to B5, the “Ratio IC50 to 056-53.H4E IC50” value is 1.6.

Consider B6, for which the “Ratio IC50 to 056-53.H4E IC50” value was 0.9.

As for B8, the “Ratio IC50 to 056-53.H4E IC50” value came to 0.4.

Take B10: the “Ratio IC50 to 056-53.H4E IC50” value is 2.4.

Take B11: the “Ratio IC50 to 056-53.H4E IC50” value amounted to 2.

On to B12, for which the “Ratio IC50 to 056-53.H4E IC50” value is 2.8.

In the case of B13, the “Ratio IC50 to 056-53.H4E IC50” value worked out at 2.5.

In the case of B14, the “Ratio IC50 to 056-53.H4E IC50” value was 1.8.

On to B17, for which the “Ratio IC50 to 056-53.H4E IC50” value worked out at 1.1.

Regarding B18, the “Ratio IC50 to 056-53.H4E IC50” value worked out at 1.

Turning to B20, the “Ratio IC50 to 056-53.H4E IC50” value is 1.8.

On to B21, for which the “Ratio IC50 to 056-53.H4E IC50” value is 2.1.

In the case of B22, the “Ratio IC50 to 056-53.H4E IC50” value was found to be 1.2.

On to B23, for which the “Ratio IC50 to 056-53.H4E IC50” value came out at 11.3.
